Results taken from patent US20210198347A1 (Chugai, published 2021).

Legend:
[1] = target: T1, Native proenzyme human C1s (Comptech A103) (human, UniProt P09871 16-688); experiment: SPR (BIACORE T200, 37 degrees C, pH 7.4), antibody captured by protein A/G, C1s 50 nM
T1 construct: mature; Bought native protein; also called native human C1s Proenzyme; native human C1s proenzyme protein (CompTech)
T1 sequence (looked up): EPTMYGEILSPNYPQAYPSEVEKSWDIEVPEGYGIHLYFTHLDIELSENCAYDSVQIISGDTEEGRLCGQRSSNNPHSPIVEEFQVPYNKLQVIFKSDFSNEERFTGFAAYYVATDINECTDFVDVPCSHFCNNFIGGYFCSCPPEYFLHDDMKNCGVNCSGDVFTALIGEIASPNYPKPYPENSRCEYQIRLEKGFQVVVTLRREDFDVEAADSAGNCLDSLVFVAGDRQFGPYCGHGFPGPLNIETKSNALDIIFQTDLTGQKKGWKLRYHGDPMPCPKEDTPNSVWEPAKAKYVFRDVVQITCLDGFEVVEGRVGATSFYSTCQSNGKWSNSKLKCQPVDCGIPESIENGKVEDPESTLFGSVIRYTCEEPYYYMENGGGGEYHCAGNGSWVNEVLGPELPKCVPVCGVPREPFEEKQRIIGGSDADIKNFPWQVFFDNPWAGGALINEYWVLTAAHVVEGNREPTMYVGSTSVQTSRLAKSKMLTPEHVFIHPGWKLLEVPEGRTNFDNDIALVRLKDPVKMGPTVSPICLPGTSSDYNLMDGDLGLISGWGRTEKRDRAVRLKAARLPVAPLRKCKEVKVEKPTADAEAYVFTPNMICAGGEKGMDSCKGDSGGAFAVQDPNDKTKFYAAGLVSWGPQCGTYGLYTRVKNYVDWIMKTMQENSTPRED
Procedure: The binding specificities of the six C1s CUB1-EGF-CUB2 binders were determined at 37 degrees C. using BIACORE® T200 instrument (GE Healthcare). Recombinant Protein A/G (Pierce) was immobilized onto all flow cells of a CM4 sensor chip using an amine coupling kit (GE Healthcare). Antibodies and analytes were prepared in 7(+) buffer (20 mM ACES, 150 mM NaCl, 1.2 mM CaCl₂, 0.05% Tween 20, 0.005% NaN₃, pH 7.4). Each antibody was captured onto the sensor surface by protein A/G. Antibody capture levels were aimed at 100 resonance unit (RU). Native proenzyme human C1s (Comptech A103) (at 50 nM as a monomer) or recombinant human C1s CCP1-CCP2-SP-His (at 100 nM as a monomer) was injected, followed by dissociation. Sensor surface was regenerated each cycle with 10 mM Glycine-HCl pH 1.5. The six C1s CUB1-EGF-CUB2 binders bound to the native proenzyme human C1s, but not recombinant human C1s CCP1-CCP2-SP-His, which is a truncated protein lacking the CUB1-EGF-CUB2 domain.

[2] = target: T2, recombinant human C1s CCP1-CCP2-SP-His (human, UniProt P09871 292-688); experiment: SPR (BIACORE T200, 37 degrees C, pH 7.4, 1.2 mM CaCl2), antibody captured by protein A/G
T2 construct: Truncated protein lacking the CUB1-EGF-CUB2 domain; also called human C1s CCP1-CCP2-SP M292-D688
T2 sequence: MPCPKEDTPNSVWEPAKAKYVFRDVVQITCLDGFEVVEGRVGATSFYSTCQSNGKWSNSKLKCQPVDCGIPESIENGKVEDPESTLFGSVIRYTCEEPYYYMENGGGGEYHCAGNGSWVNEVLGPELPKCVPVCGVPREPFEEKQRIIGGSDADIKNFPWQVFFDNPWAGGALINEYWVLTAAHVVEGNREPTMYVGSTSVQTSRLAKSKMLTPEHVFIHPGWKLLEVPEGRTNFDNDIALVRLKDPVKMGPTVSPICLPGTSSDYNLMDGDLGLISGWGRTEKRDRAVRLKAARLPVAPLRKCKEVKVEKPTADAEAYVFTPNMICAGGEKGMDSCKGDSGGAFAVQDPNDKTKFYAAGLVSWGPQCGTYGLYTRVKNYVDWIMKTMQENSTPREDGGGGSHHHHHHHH

B1: COS0583gg-SG1148 (antibody, human IgG1, kappa, V domains shown)
VH: QSLEESGGRLVTPGTPLTLTCTVSGIDLSSYAMIWVRQAPGKGLEWIGIIYVRGSTYYASWAKDRFTISKTSTTVDLKITSPTTEDTATYFCARAYGGDTFSDGFDPWGPGTLVTVSS
VL: DPVMTQTPSSTSAAVGGTVTINCQSSQNVYGNNRLAWYQQKPGQPPKLLIYLASTLASGVPSRFRGNGSGTQFTLTISGVQCDDAATYYCAGGYRDDTNSFGGGTKVEIKR
notes: Constant regions as for m1; also called COS583; COS583gg(-SG1148)
- binding result [1]: binds
- binding result [2]: no binding (tested: 100 nM)
